Laboratory results: IntAct's records for PubMed 21078995

B1: Nitrate/nitrite sensor protein NarX (Escherichia coli (strain K12)), P0AFA2 (parent)
chain: MLKRCLSPLTLVNQVALIVLLSTAIGLAGMAVSGWLVQGVQGSAHAINKAGSLRMQSYRLLAAVPLSEKDKPLIKEMEQTAFSAELTRAAERDGQLAQLQGLQDYWRNELIPALMRAQNRETVSADVSQFVAGLDQLVSGFDRTTEMRIETVVLVHRVMAVFMALLLVFTIIWLRARLLQPWRQLLAMASAVSHRDFTQRANISGRNEMAMLGTALNNMSAELAESYAVLEQRVQEKTAGLEHKNQILSFLWQANRRLHSRAPLCERLSPVLNGLQNLTLLRDIELRVYDTDDEENHQEFTCQPDMTCDDKGCQLCPRGVLPVGDRGTTLKWRLADSHTQYGILLATLPQGRHLSHDQQQLVDTLVEQLTATLALDRHQERQQQLIVMEERATIARELHDSIAQSLSCMKMQVSCLQMQGDALPESSRELLSQIRNELNASWAQLRELLTTFRLQLTEPGLRPALEASCEEYSAKFGFPVKLDYQLPPRLVPSHQAIHLLQIAREALSNALKHSQASEVVVTVAQNDNQVKLTVQDNGCGVPENAIRSNHYGMIIMRDRAQSLRGDCRVRRRESGGTEVVVTFIPEKTFTDVQGDTHE

Variants of: B1
Conditions: with narl_ecoli narL

| effect of a mutation on the interaction | Variant |
| --- | --- |
| disrupting interaction | MLKRCLSPLTLVNQVALIVLLSTAIGLAGMAVSGWLVQGVQGSAHAINKAGSLRMQSYRLLAAVPLSEKDKPLIKEMEQTAFSAELTRAAERDGQLAQLQGLQDYWRNELIPALMRAQNRETVSADVSQFVAGLDQLVSGFDRTTEMRIETVVLVHRVMAVFMALLLVFTIIWLRARLLQPWRQLLAMASAVSHRDFTQRANISGRNEMAMLGTALNNMSAELAESYAVLEQRVQEKTAGLEHKNQILSFLWQANRRLHSRAPLCERLSPVLNGLQNLTLLRDIELRVYDTDDEENHQEFTCQPDMTCDDKGCQLCPRGVLPVGDRGTTLKWRLADSHTQYGILLATLPQGRHLSHDQQQLVDTLVEQLTATLALDRHQERQQQLIVMEERATIARELQDSIAASLSCMKMQVSCLQMQGDALPESSRELLSQIRNELNASWAQLRELLTTFRLQLTEPGLRPALEASCEEYSAKFGFPVKLDYQLPPRLVPSHQAIHLLQIAREALSNALKHSQASEVVVTVAQNDNQVKLTVQDNGCGVPENAIRSNHYGMIIMRDRAQSLRGDCRVRRRESGGTEVVVTFIPEKTFTDVQGDTHE [H399Q;Q404A] |
| disrupting interaction | MLKRCLSPLTLVNQVALIVLLSTAIGLAGMAVSGWLVQGVQGSAHAINKAGSLRMQSYRLLAAVPLSEKDKPLIKEMEQTAFSAELTRAAERDGQLAQLQGLQDYWRNELIPALMRAQNRETVSADVSQFVAGLDQLVSGFDRTTEMRIETVVLVHRVMAVFMALLLVFTIIWLRARLLQPWRQLLAMASAVSHRDFTQRANISGRNEMAMLGTALNNMSAELAESYAVLEQRVQEKTAGLEHKNQILSFLWQANRRLHSRAPLCERLSPVLNGLQNLTLLRDIELRVYDTDDEENHQEFTCQPDMTCDDKGCQLCPRGVLPVGDRGTTLKWRLADSHTQYGILLATLPQGRHLSHDQQQLVDTLVEQLTATLALDRHQERQQQLIVMEERATIARELQDSIAHSLSCMKMQVSCLQMQGDALPESSRELLSQIRNELNASWAQLRELLTTFRLQLTEPGLRPALEASCEEYSAKFGFPVKLDYQLPPRLVPSHQAIHLLQIAREALSNALKHSQASEVVVTVAQNDNQVKLTVQDNGCGVPENAIRSNHYGMIIMRDRAQSLRGDCRVRRRESGGTEVVVTFIPEKTFTDVQGDTHE [H399Q;Q404H] |
| decreasing interaction | MLKRCLSPLTLVNQVALIVLLSTAIGLAGMAVSGWLVQGVQGSAHAINKAGSLRMQSYRLLAAVPLSEKDKPLIKEMEQTAFSAELTRAAERDGQLAQLQGLQDYWRNELIPALMRAQNRETVSADVSQFVAGLDQLVSGFDRTTEMRIETVVLVHRVMAVFMALLLVFTIIWLRARLLQPWRQLLAMASAVSHRDFTQRANISGRNEMAMLGTALNNMSAELAESYAVLEQRVQEKTAGLEHKNQILSFLWQANRRLHSRAPLCERLSPVLNGLQNLTLLRDIELRVYDTDDEENHQEFTCQPDMTCDDKGCQLCPRGVLPVGDRGTTLKWRLADSHTQYGILLATLPQGRHLSHDQQQLVDTLVEQLTATLALDRHQERQQQLIVMEERATIARELQASIAQSLSCMKMQVSCLQMQGDALPESSRELLSQIRNELNASWAQLRELLTTFRLQLTEPGLRPALEASCEEYSAKFGFPVKLDYQLPPRLVPSHQAIHLLQIAREALSNALKHSQASEVVVTVAQNDNQVKLTVQDNGCGVPENAIRSNHYGMIIMRDRAQSLRGDCRVRRRESGGTEVVVTFIPEKTFTDVQGDTHE [H399Q;D400A] |
| decreasing interaction | MLKRCLSPLTLVNQVALIVLLSTAIGLAGMAVSGWLVQGVQGSAHAINKAGSLRMQSYRLLAAVPLSEKDKPLIKEMEQTAFSAELTRAAERDGQLAQLQGLQDYWRNELIPALMRAQNRETVSADVSQFVAGLDQLVSGFDRTTEMRIETVVLVHRVMAVFMALLLVFTIIWLRARLLQPWRQLLAMASAVSHRDFTQRANISGRNEMAMLGTALNNMSAELAESYAVLEQRVQEKTAGLEHKNQILSFLWQANRRLHSRAPLCERLSPVLNGLQNLTLLRDIELRVYDTDDEENHQEFTCQPDMTCDDKGCQLCPRGVLPVGDRGTTLKWRLADSHTQYGILLATLPQGRHLSHDQQQLVDTLVEQLTATLALDRHQERQQQLIVMEERATIARELQDSIAQSLSCMKMQVSCLQMQGDALPESSRELLSQIRNELNASWAQLRELLTTFRLQLTEPGLRPALEASCEEYSAKFGFPVKLDYQLPPRLVPSHQAIHLLQIAREALSNALKHSQASEVVVTVAQNDNQVKLTVQDNGCGVPENAIRSNHYGMIIMRDRAQSLRGDCRVRRRESGGTEVVVTFIPEKTFTDVQGDTHE [H399Q] |
